Test results as given in patent US20140161803A1, “CONSTITUTIVELY ACTIVE UPAR VARIANTS AND THEIR USE FOR THE GENERATION AND ISOLATION OF INHIBITORY ANTIBODIES” (IFOM Fondazione Istituo FIRC di Oncologia Molecolare, priority 2011, published 2014).

Target: wild-type human uPAR (human) (UniProt Q03405)
Experiment: cell-based or functional assay

Chain of wild-type human uPAR (human) (Q03405 23-305): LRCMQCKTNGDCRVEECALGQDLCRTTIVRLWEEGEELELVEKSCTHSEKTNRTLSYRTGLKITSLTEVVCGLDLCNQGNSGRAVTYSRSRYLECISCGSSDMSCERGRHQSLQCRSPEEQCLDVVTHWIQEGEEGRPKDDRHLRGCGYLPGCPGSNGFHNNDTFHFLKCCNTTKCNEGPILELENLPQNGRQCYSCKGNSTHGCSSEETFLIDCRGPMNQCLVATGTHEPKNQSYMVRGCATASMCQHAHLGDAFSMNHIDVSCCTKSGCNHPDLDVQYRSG

R2 (antibody) was tested, and the % max inhibition (pro-uPA pre-treat.) was 21% and the % max inhibition (veh. pre-treat.) was 65%.
“Somatomedin B domain of VN (from UniProt P04004 20-63) (ligand)” was tested, and the % max inhibition (pro-uPA pre-treat.) was 100%, the % max inhibition (veh. pre-treat.) was 100% and the IC50 (pro-uPA pre-treat.) was 800 nM.
